Patent US6358924B1, “GLP-1 formulations” (Eli Lilly and Company, priority 1997, dated 2002)

Columns and labels:
[1] = tested on: beagle dogs clamped at an elevated glycemic level (200 mg/dl); experiment: Hyperglycemic clamp, glucose infusion rate after subcutaneous injection; assay type: in vivo; settings: formulation containing DSS
Procedure: A portion of the formulation from Example 2 was injected subcutaneously into beagle dogs that were clamped at an elevated glycemic level (200 mg/dl). 3 nmoles/kg of Val^8-GLP-1 were injected into each animal. Glucose infusion rates needed to maintain hyperglycemia were measured for 2.5 hours after the injections and compared to injections of a vehicle control solution.

[2] = Storage stability (solution clarity, HPLC purity) of preserved Val^8-GLP-1(7-37)OH formulation with DSS 2:1, Example 2; assay type: physicochemical; settings: for solution appearance: DSS 2:1, m-cresol about 3.15 mg/ml; for HPLC purity after storage: DSS 2:1, m-cresol
Procedure: A formulation of the invention was prepared by dissolving Val^8-GLP-1(7-37)OH at about 1.0 mg/ml in an aqueous solution containing 16 mg/ml glycerin and 10 mM sodium tribasic phosphate. The solution was adjusted to about pH 8.0 using 5N HCl. The solution was then filtered through 0.2μ and 0.02μ filters. The peptide concentration was quantified by ultraviolet (UV) analysis at 280 nm.
6.5 ml of the Val^8-GLP-1 solution was added to 1.62 mg of solid DSS, which had been dried from a 100 mg/ml solution in absolute ethanol, to give a 2:1 molar ratio of DSS to Val^8-GLP-1. After gently stirring 15 minutes at ambient temperature the solution was added to 20.5 mg of m-cresol, which had been dried from a 100 mg/ml solution in absolute ethanol, to give a m-cresol concentration of about 3.15 mg/ml. After stirring 15 minutes at ambient temperature, the solution was adjusted to about pH 7.7 and passed through a 0.2μ filter. Portions of this formulation were stored at 4° C. and at ambient temperature.
After 18 weeks, the formulations maintained at 4° C. and at ambient temperature were examined. Both solutions were clear.

[3] = Solution clarity of m-cresol-preserved Val^8-GLP-1 solution with other surfactants, Example 4; assay type: physicochemical; settings: m-cresol about 3 mg/ml; for solution appearance: without any additives; for clarity of Val^8-GLP-1 solution with added surfactant: 10 μl surfactant in 500 μL of 1 mg/ml peptide, ambient temperature about 3 hours
Procedure: A formulation of the invention was prepared by dissolving Val^8-GLP-1(7-37)OH at 1 mg/ml in an aqueous solution containing 16 mg/ml glycerin and 10 mM sodium tribasic phosphate. The solution was adjusted to about pH 8.0 using 2N HCl.
(§1) The preservative m-cresol was prepared at a concentration of 100 mg/ml in absolute ethanol.
Various formulation excipients listed herein were added to 500 μL aliquots of the Val^8-GLP-1(7-37)OH solution in 3-ml glass vials. After stirring for about 45 minutes at ambient temperature, 15.8 μl of a 100 mg/ml m-cresol solution in absolute ethanol was added to give a m-cresol concentration of about 3 mg/ml.
Without any additives, the Val^8-GLP-1 solution becomes hazy at both ambient temperature and at 4° C.

[4] = Storage stability (solution clarity, HPLC purity) of m-cresol-preserved Val^8-GLP-1(7-37)OH formulations with DSS, Example 1; assay type: physicochemical; settings: for time solution remained clear: 4° C.; for HPLC purity after storage: 6 weeks at 4° C.
Procedure: A formulation of the invention was prepared by dissolving Val^8-GLP-1(7-37)OH at 1 mg/ml in an aqueous solution containing 16 mg/ml glycerin and 10 mM sodium tribasic phosphate. The solution was adjusted to about pH 8.1 using 1N HCl.
as §1
Sodium docusate (DSS) was prepared at a concentration of 20 mg/ml in water with gentle warming on a hot plate.
To each of 500 μL aliquots of the Val^8-GLP-1(7-37)OH solution in 3-ml glass vials were added 0, 3.3, 6.6 or 16.5 μL of the DSS solution followed by 15.8 μL of the preservative m-cresol solution. After gentle mixing of the components in the vials by hand swirling the pH of each clear solution was-adjusted to pH 7.8. Replicate samples were incubated at 4° C., ambient temperature, and 37° C. Within 4 hours at ambient temperature, the samples containing 0 or 3.3 μL of the DSS solution had become hazy due to peptide denaturation.
After incubation for 16 hours at 37° C., all four types of samples were clear. The solutions were then incubated at 4° C. Again, the solutions containing 0 or 3.3 μL of the DSS solutions became, and remained, hazy.
The solutions containing 6.6 μL or 16.5 μL of the DSS solution, which correspond to 2:1 and 10:1 molar ratios DSS to Val^8-GLP-1(7-37)OH, respectively, remained clear at 4° C. for at least 6 weeks.

[5] = Circular dichroism of Val^8-GLP-1 / GLP-1 secondary structure with bound DSS; assay type: physicochemical
Text: A slightly larger form of Val^8-GLP-1 with DSS molecule(s) bound to it was observed on size-exclusion chromatography (SEC) and the altered secondary structure was noted by circular dichroism experiments (CD).

Val^8-GLP-1(7-37)OH
insulinotropic-like activity versus Val^8-GLP-1 in phosphate buffer solution (PBS formulation) [1]: comparable in potency | solution appearance ([2]; pH about 7.7, 18 weeks at 4° C.): clear | solution appearance ([2]; pH about 7.7, 18 weeks at ambient temperature): clear | HPLC purity after storage ([2]; 18 weeks at 4° C.): 98.3% | HPLC purity after storage ([2]; 18 weeks at ambient temperature): 90.8% | solution appearance ([3]; 4° C.): hazy | solution appearance ([3]; ambient temperature): hazy | solution appearance ([4]; 0 μL DSS solution, incubated at 4° C. after 16 hours at 37° C.): hazy | solution appearance ([4]; 0 μL DSS solution, m-cresol, pH 7.8, within 4 hours at ambient temperature): hazy | solution appearance ([4]; 3.3 μL DSS solution, incubated at 4° C. after 16 hours at 37° C.): hazy | solution appearance ([4]; 3.3 μL DSS solution, m-cresol, pH 7.8, within 4 hours at ambient temperature): hazy | time solution remained clear ([4]; 6.6 μL DSS solution (2:1 molar ratio DSS to peptide)): at least 6 weeks | HPLC purity after storage ([4]; 6.6 μL DSS solution (2:1 molar ratio)): 98.3% | time solution remained clear ([4]; 16.5 μL DSS solution (10:1 molar ratio DSS to peptide)): at least 6 weeks | HPLC purity after storage ([4]; 16.5 μL DSS solution (10:1 molar ratio)): 97.2% | solution stability on addition of DSS ([4]; DSS 2:1 molar vs. peptide, isotonic, pH 7.8, m-cresol): dramatically improved | solution appearance ([4]; all four sample types (0, 3.3, 6.6, 16.5 μL DSS solution), after incubation for 16 hours at 37° C.): clear | secondary structure upon binding of DSS ([5]; circular dichroism): converted from mostly alpha-helix to mostly a beta sheet

Tween-80
clarity of Val^8-GLP-1 solution with added surfactant [3]: preserved solution clarity

Tween-40
clarity of Val^8-GLP-1 solution with added surfactant [3]: preserved solution clarity

GLP-1(7-37) (HAEGTFTSDVSSYLEGEAAKEFIAWLVKGRG; listed as Homo sapiens)
reversion to alpha-helix conformation ([5]; GLP-1-DSS mixture, 2-day dialysis, CD study): did not revert
